Results reported in patent US20230212319A1, “NOVEL ANTIGEN BINDING DOMAINS AND SYNTHETIC ANTIGEN RECEPTORS INCORPORATING THE SAME” (University of Southern California, priority 2020, published 2023).

B1: CD8SP-CD19-hu-mROO5-1-vL-IgCL-TCRg-6MD-F-P2A-SP-CD19-hu-mROO5-1-vH-hTCR-delta-F-F2A-PAC (protein)
chain: MALPVTALLLPLALLLHAARPDIQMTQSPSSLSASVGDRVTITCKASDHINNWLAWYQQKPGQAPKLLIYGATTLETGVPSRFSGSGSGTDYTLTISSLQPEDFATYYCQQSWNTPWTFGQGTKLEIKRLEGQPKANPTVTLFPPSSEELQANKATLVCLISDFYPGAVTVAWKADGSPVKAGVETTKPSKQSNNKYAASSYLSLTPEQWKSHRSYSCQVTHEGSTVEKTVAPTECSPIKTDVITMDPKDNCSKDANDTLLLQLTNTSAYYMYLLLLLKSVVYFAIITCCLLRRTAFCCNGEKSRAKRSGSGATNFSLLKQAGDVEENPGPTSMDWIWRILFLVGAATGAHSFEQVQLQQPGAELVKPGASVKMSCKASGYAFSSYWINWMKQKPGQGLEWIGQIYPGDGDTNYNGKFKGRATLTADTSSSTAYMQLSSLTSEDSAVYFCARSITTVVGCAMDYWGQGTSVTVSSTRSQPHTKPSVFVMKNGTNVACLVKEFYPKDIRINLVSSKKITEFDPAIVISPSGKYNAVKLGKYEDSNSVTCSVQHDNKTVHSTDFEVKTDSTDHVKPKETENTKQPSKSCHKPKAIVHTEKVNMMSLTVLGLRMLFAKTVAVNFLLTAKLFFLRAKRSGSGVKQTLNFDLLKLAGDVESNPGPSRGHMTEYKPTVRLATRDDVPRAVRTLAAAFADYPATRHTVDPDRHIERVTELQELFLTRVGLDIGKVWVADDGAAVAVWTTPESVEAGAVFAEIGPRMAELSGSRLAAQQQMEGLLAPHRPKEPAWFLATVGVSPDHQGKGLGSAVVLPGVEAAERAGVPAFLETSAPRNLPFYERLGFTVTADVEVPEGPRTWCMTRKPGA
B2: CD8SP-BCMA-FHVH-93-G4S-hu-mROO5-vL-[hTCRb-S57C]-F-P2A-IgHSP-CD20-VHH-USC1-2HCD26-G4S-AFP-Va-14-3-AI-[hTCRa-T48C]-F-F2A-PAC (protein)
chain: MALPVTALLLPLALLLHAARPACEVQLLESGGGLIQPGGSLRLSCAASGFTFSSHAMTWVRQAPGKGLEWVSAISGSGDYTHYADSVKGRFTISRDNSKNTVYLQMNSLRAEDSAVYYCAKDEDGGSLLGHRGQGTLVTVSSGTGGGGSGGGGSGGGGSEFDIQMTQSPSSLSASVGDRVTITCKASDHINNWLAWYQQKPGQAPKLLIYGATTLETGVPSRFSGSGSGTDYTLTISSLQPEDFATYYCQQSWNTPWTFGQGTKLEIKRLEDLKNVFPPEVAVFEPSEAEISHTQKATLVCLATGFYPDHVELSWWVNGKEVHSGVCTDPQPLKEQPALNDSRYCLSSRLRVSATFWQNPRNHFRCQVQFYGLSENDEWTQDRAKPVTQIVSAEAWGRADCGFTSESYQQGVLSATILYEILLGKATLYAVLVSALVLMAMVKRKDSRGRAKRSGSGATNFSLLKQAGDVEENPGPTSATMDWIWRILFLVGAATGAHSGPEVQLVESGGGLVQAGGSLRLSCAASGRTFSMGWFRQAPGKEREFVAAITYSGGSPYYADSVKGRFTISRDNAKNTVYLQMNSLKPEDTAVYYCAANPTYGSDWNAENWGQGTQVTVSSGSGGGGSGGGGSGGGGSFEQKEVEQNSGPLSVPEGAIASLNCTYSDRGSQSFFWYRQYSGKSPELIMSIYSNGDKEDGRFTAQLNKASQYVSLLIRDSQPSDSATYLCAVNSQSGVALNFGKGTSLLVTPHIQNPDPAVYQLRDSKSSDKSVCLFTDFDSQTNVSQSKDSDVYITDKCVLDMRSMDFKSNSAVAWSNKSDFACANAFNNSIIPEDTFFPSPESSCDVKLVEKSFETDTNLNFQNLSVIGFRILLLKVAGFNLLMTLRLWSSRAKRSGSGVKQTLNFDLLKLAGDVESNPGPSRGHMTEYKPTVRLATRDDVPRAVRTLAAAFADYPATRHTVDPDRHIERVTELQELFLTRVGLDIGKVWVADDGAAVAVWTTPESVEAGAVFAEIGPRMAELSGSRLAAQQQMEGLLAPHRPKEPAWFLATVGVSPDHQGKGLGSAVVLPGVEAAERAGVPAFLETSAPRNLPFYERLGFTVTADVEVPEGPRTWCMTRKPGA
B3: SEQ ID NO: 22253: bispecific SAR on CD19 targeted SIR backbone comprising the receptor binding domain of the ligand APRIL (protein)
chain: MALPVTALLLPLALLLHAARPDIQMTQSPSSLSASVGDRVTITCKASDHINNWLAWYQQKPGQAPKLLIYGATTLETGVPSRFSGSGSGTDYTLTISSLQPEDFATYYCQQSWNTPWTFGQGTKLEIKRLEDLKNVFPPEVAVFEPSEAEISHTQKATLVCLATGFYPDHVELSWWVNGKEVHSGVCTDPQPLKEQPALNDSRYCLSSRLRVSATFWQNPRNHFRCQVQFYGLSENDEWTQDRAKPVTQIVSAEAWGRADCGFTSESYQQGVLSATILYEILLGKATLYAVLVSALVLMAMVKRKDSRGRAKRSGSGATNFSLLKQAGDVEENPGPTSATMDWIWRILFLVGAATGAHSGPVLHLVPINATSKDDSDVTEVMWQPALRRGRGLQAQGYGVRIQDAGVYLLYSQVLFQDVTFTMGQVVSREGQGRQETLFRCIRSMPSHPDRAYNSCYSAGVFHLHQGDILSVIIPRARAKLNLSPHGTFLGFVKLGSGGGGSGGGGSGGGGSFEQVQLQQPGAELVKPGASVKMSCKASGYAFSSYWINWMKQKPGQGLEWIGQIYPGDGDTNYNGKFKGRATLTADTSSSTAYMQLSSLTSEDSAVYFCARSITTVVGCAMDYWGQGTSVTVSSTRIQNPDPAVYQLRDSKSSDKSVCLFTDFDSQTNVSQSKDSDVYITDKCVLDMRSMDFKSNSAVAWSNKSDFACANAFNNSIIPEDTFFPSPESSCDVKLVEKSFETDTNLNFQNLSVIGFRILLLKVAGFNLLMTLRLWSSRAKRSGSGVKQTLNFDLLKLAGDVESNPGPSRGHMTEYKPTVRLATRDDVPRAVRTLAAAFADYPATRHTVDPDRHIERVTELQELFLTRVGLDIGKVWVADDGAAVAVWTTPESVEAGAVFAEIGPRMAELSGSRLAAQQQMEGLLAPHRPKEPAWFLATVGVSPDHQGKGLGSAVVLPGVEAAERAGVPAFLETSAPRNLPFYERLGFTVTADVEVPEGPRTWCMTRKPGA
B4: SEQ ID NO: 22252: bispecific SAR on CD19 targeted SIR backbone comprising the receptor binding domain of the ligand 4-1BB (protein)
chain: MALPVTALLLPLALLLHAARPDIQMTQSPSSLSASVGDRVTITCKASDHINNWLAWYQQKPGQAPKLLIYGATTLETGVPSRFSGSGSGTDYTLTISSLQPEDFATYYCQQSWNTPWTFGQGTKLEIKRLEDLKNVFPPEVAVFEPSEAEISHTQKATLVCLATGFYPDHVELSWWVNGKEVHSGVCTDPQPLKEQPALNDSRYCLSSRLRVSATFWQNPRNHFRCQVQFYGLSENDEWTQDRAKPVTQIVSAEAWGRADCGFTSESYQQGVLSATILYEILLGKATLYAVLVSALVLMAMVKRKDSRGRAKRSGSGATNFSLLKQAGDVEENPGPTSATMDWIWRILFLVGAATGAHSGPGLLDLRQGMFAQLVAQNVLLIDGPLSWYSDPGLAGVSLTGGLSYKEDTKELVVAKAGVYYVFFQLELRRVVAGEGSGSVSLALHLQPLRSAAGAAALALTVDLPPASSEARNSAFGFQGRLLHLSAGQRLGVHLHTEARARHAWQLTQGATVLGLFRVTPEIPAGLPSPRSEGSGGGGSGGGGSGGGGSFEQVQLQQPGAELVKPGASVKMSCKASGYAFSSYWINWMKQKPGQGLEWIGQIYPGDGDTNYNGKFKGRATLTADTSSSTAYMQLSSLTSEDSAVYFCARSITTVVGCAMDYWGQGTSVTVSSTRIQNPDPAVYQLRDSKSSDKSVCLFTDFDSQTNVSQSKDSDVYITDKCVLDMRSMDFKSNSAVAWSNKSDFACANAFNNSIIPEDTFFPSPESSCDVKLVEKSFETDTNLNFQNLSVIGFRILLLKVAGFNLLMTLRLWSSRAKRSGSGVKQTLNFDLLKLAGDVESNPGPSRGHMTEYKPTVRLATRDDVPRAVRTLAAAFADYPATRHTVDPDRHIERVTELQELFLTRVGLDIGKVWVADDGAAVAVWTTPESVEAGAVFAEIGPRMAELSGSRLAAQQQMEGLLAPHRPKEPAWFLATVGVSPDHQGKGLGSAVVLPGVEAAERAGVPAFLETSAPRNLPFYERLGFTVTADVEVPEGPRTWCMTRKPGA

Each molecule was assayed on RAJI cells (assay: JNG assay, co-culture with RAJI cells). Conditions: co-culture with RAJI cells.
Format: cell-based
Experimental: Cellular supernatant is collected and assayed for the induction of cytokines (e.g., IL2).
JNG (Jurkat cells expressing EGFP under an NFAT promoter) were infected with lentiviral vectors encoding different single chain and multi-chain SARs by spinfection in the presence of 8 µg/ml of Polybrene® (Sigma, Catalog no. H9268). The Jurkat-NFAT-GFP cells are engineered in such a way that the IL-2 promoter, which carries NFAT binding sites, is cloned upstream of the GFP gene. These cells have been used to study signaling via TCR and CAR. The different SARs were stably expressed in Jurkat NFAT-GFP cells by lentiviral mediated gene transfer, followed by selection with puromycin or blasticidin. No drug selection was used in case the construct lacked an antibiotic resistance gene. The SAR-expressing Jurkat-NFAT-GFP cells were cocultured with the target cells at E:T ratio of approximately 1:2 for approximately 4 hours to 18 hours. When the interaction between SIRs and their target antigen results in activation of the NFAT pathway, GFP expression is induced. […] GFP expression was monitored by FACS analysis. The Jurkat-NFAT-GFP (parental) cells were used as control. The structure of different constructs can be determined based on their names. […] The sequence of the other constructs in the table can be similarly determined from their names and by referring to the different Tables of this disclosure that provide the names and SEQ ID NO of the different modules. Alternatively, the composition and modular architecture of the different SAR constructs can be determined from their sequences by bioinformatics tools, including using nucleic acid and amino acids homology searches. A SAR is considered positive in the assay in case the SAR expressing Jurkat-NFAT-GFP cells show greater % GFP positive cells when cultured with the target cell line as compared to parental Jurkat-NFAT-GFP cells. […] In general, the number +/-, +, 2+, 3+, 4+, 5+ refer to approximately 5%, 10%, 20%, 30%, 40% and 50% GFP positive cells. The % of GFP induction in the above assay is dependent not only the relative strength of the SAR but also, among other factors, on the relative level of expression of the SAR in the JNG cells and the relative level of expression of the target antigen in the target cell line. To control for the difference in gene transduction efficiency of the different SAR constructs, the experiment was conducted with JNG cells transduced with SAR constructs co-expressing a drug resistance gene (e.g., puromycin or PAC) followed by drug selection to generate a stable population of SAR-expressing cells. It is to be noted that the drug resistance gene (e.g., PAC) in the SAR constructs is optional and in vivo studies were conducted with SAR constructs lacking the PAC gene.

| Molecule | GFP induction / activity |
| --- | --- |
| B1 | robust GFP induction |
| B2 | robust GFP induction activity |
| B3 | retained the ability to respond |
| B4 | retained the ability to respond |
